From paper PMC7458312, “Anthrax toxin component, Protective Antigen, protects insects from bacterial infections” (PLoS Pathogens, 2020)

Key:
[1] = biological target: T1, Drosophila melanogaster peptidoglycan-recognition protein-SA (PGRP-SA), T7-tagged (D. melanogaster, UniProt Q9VYX7 27-203); assay: ELISA; […]) or 5% BSA ([…]; details: both partners purified
T1 construct: also called PRGP-SA
T1 sequence (looked up): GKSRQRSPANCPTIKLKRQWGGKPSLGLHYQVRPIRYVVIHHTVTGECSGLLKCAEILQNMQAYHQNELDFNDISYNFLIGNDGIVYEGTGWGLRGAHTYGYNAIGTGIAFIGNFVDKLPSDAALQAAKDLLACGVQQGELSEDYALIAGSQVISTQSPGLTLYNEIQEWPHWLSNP

[2] = biological target: T2, human recombinant PGRP-S (also called PGLYRP1) (human, UniProt O75594 22-196); assay: ELISA; […]) or 5% BSA ([…]; details: both partners purified
T2 construct: also called PRGP-S; human PGRP-SA ortholog
T2 sequence (looked up): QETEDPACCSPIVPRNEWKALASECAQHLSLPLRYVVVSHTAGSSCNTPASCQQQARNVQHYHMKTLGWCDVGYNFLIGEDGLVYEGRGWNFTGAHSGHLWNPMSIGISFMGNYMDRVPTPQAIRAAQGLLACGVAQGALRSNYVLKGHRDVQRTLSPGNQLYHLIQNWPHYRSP

B1: PA20, 20 kDa subunit of anthrax toxin Protective Antigen (PA83) (domain or fragment)
chain: EVKQENRLLNESESSSQGLLGYYFSDLNFQAPMVVTSSTTGDLSIPSSELENIPSENQYFQSAIWSGFIKVKKSDEYTFATSADNHVTMWVDDQEVINKASNSNKIRLEKGRLYQIKIQYQRENPTEKGLDFKLYWTDSQNKKEVISSDNLQLPELKQKSSNS
notes: also called pelB-PA20-6His
binding result [1]: binds | binding result [2]: binds
